Test results taken from patent publication US20240324599A1, “PESTICIDAL ENZYMES FOR USE ON NEMATODES, INSECTS, AND MOLLUSKS” (priority 2023, published 2024).

Assays:
[1] = test system: Btk resistant Diamondback moth; experiment: Diet-surface overlay (DSO) bioassay; type: in vivo; conditions: Table 47, Btk resistant
Method in brief: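 Enzyme treatments (0.1 mL) were applied over the surface of antibiotic-free artificial diet, with one first-instar larva per cell and 16 or 32 larvae per treatment. After 7 days at 27° C under a 16:8 light-dark cycle, larvae were scored as dead, larval stage, pupa or adult. Water served as the negative control and 1000 ppm Btk spores as the positive control.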

[2] = test system: Diamondback moth (Plutella xylostella); experiment: Diet-surface overlay (DSO) bioassay; type: in vivo
Protocol: Diet-surface overlay bioassays are conducted with artificial diet mixes without antibiotics in 1.5 cm^2 cell bioassay trays(s). Artificial diets are commercially available from Southland Products Inc. Diets were prepared by dispersing 0.5 mL of molten diet to each 1.5 cm^2 cell. After solidification, 0.1 mL enzyme treatments were dispersed on top of diet in each cell and the tray was gently rocked in an orbital shaker to spread the liquid uniformly over the diet surface. Trays were placed under clean airflow until the surface of each cell was uniformly dried. One or two 16-cell sections were used per treatment (the number in larvae treated was 16 or 32).
One healthy first instar larva was placed into each treatment cell, each 16-cell section was covered with a re-sealable lid and incubated at 27° C. and light-dark period of 16:8 hrs. After 7 days, and according to the species, the number of individuals in the following developmental categories was recorded.
Diamondback moth (Plutella xylostella): Dead Larva (lack of movement), Larva Stage I (≤50% relative size), Larva Stage II (100% relative size, full size), Early Pupa (light green color), Late Pupa (light-dark brown color), and Adult.
Negative/untreated controls were treated with filtered water and positive controls were treated with lethal doses of Bacillus thuringiensis subsp. Kurstaki (Btk) spores at 1000 ppm.

[3] = Table 49, esterases, number of individuals, n = 32

Molecule | Dead Larva ([1]; individuals of n = 32 after 7 days, mU/mL diet: SEQ 182 3.7, SEQ 185 0.6, water 1) | Early Pupa ([1]; n = 32, doses as E97, water 0) | Larva Stage I ([1]; n = 32, doses as E97, water 0) | Larva Stage II ([1]; n = 32, doses as E97, water 0) | Adult ([1]; n = 32, doses as E97, water 7) | Late Pupa ([1]; n = 32, doses as E97, water 24) | Adult [2, 3] | Early Pupa [2, 3] | Larva Stage I [2, 3] | Larva Stage II [2, 3] | Late Pupa [2, 3] | Dead Larva ([2]; Table 49, esterases, number of individuals, n = 32, dose per treatment in U/mL Diet) | individuals at larva stage ([2]; text to Table 49) [%] | individuals with delayed larva-pupa development ([2]; text to Table 49) [%]
Streptomyces coelicolor Chitinase F (Chi19F) (protein, Chitinase F (Chi19F); Streptomyces coelicolor) ASCSSYHAWSADANYNTGDIVRYTDGKAYIAEHANPGYDPLISTWYWDPYACDGGSQTPVGNFVVSEAQFNQMFPGRNSFYTYSGLTAALSAYPGFANTGSDTTKKQEAAAFLANVSHETGGLVYIVEQNTANYPHYCDWNQPYGCPAGQAAYYGRGPIQLSWNFNYKAAGDALGIDLLGNPWLVQNDAAVAWKTGLWYWNTQSGPGTMTPHNAMVNGAGFGQTIRSINGSLECDGKNPAQVQSRVTKYQQFAQILGVSPGGNLYC | 2 | 4 | 2 | 1 | 1 | 22 |  |  |  |  |  |  |  | 
Bacillus subtilis Esterase (EstB without signal sequence) (protein, listed as Bacillus subtilis, Esterase (EstB H191 without signal sequence)) ESVHNPVVLVHGISGASYNFFAIKNYLISQGWQSNKLYAIDFYDKTGNNLNNGPQLASYVDRVLKETGAKKVDIVAHSMGGANTLYYIKYLGGGNKIQNVVTLGGANGLVSSTALPGTDPNQKILYTSIYSLNDQIVINSLSRLQGARNIQLYGIGHIGLLSNSQVNGYIKEGLNGGGLNTN |  |  |  |  |  |  | 0 | 4 | 3 | 8 | 17 | 0 | 34 | 47
